Source: US20220120736A1, “METHODS AND ASSAYS FOR MODULATING GENE TRANSCRIPTION BY MODULATING CONDENSATES” (Whitehead Institute for Biomedical Research, priority 2018, published 2022)
Where no end group is shown, it is not given here.

Tests used:
[1] = In vitro homotypic droplet formation assay; type: physicochemical
Procedure: Slides were then imaged on the Andor Revolution Spinning Disk Confocal using a 100× objective.
The CDK8-Mediator samples were purified as described (Meyer et al., 2008) with modifications. Prior to affinity purification, the P0.5M/QFT fraction was concentrated, to 12 mg/mL, by ammonium sulfate precipitation (35%). […] Affinity purification was carried out as described (Meyer et al., 2008), eluted material was loaded onto a 2.2 mL centrifuge tube containing 2 mL 0.15M KCl HEMG (20 mM HEPES, 0.1 mM EDTA, 2 mM MgCl2, 10% glycerol) and centrifuged at 50K RPM for 4 h at 4° C. This served to remove excess free GST-SREBP and to concentrate the CDK8-Mediator in the final fraction. Prior to droplet assays, purified CDK8-Mediator was concentrated using Microcon-30 kDa Centrifugal Filter Unit with Ultracel-30 membrane (Millipore MRCFOR030) to reach ˜300 nM of Mediator complex. Concentrated CDK8-Mediator was added to the droplet assay to a final concentration of ˜200 nM with or without 10 μM indicated GFP-tagged protein. Droplet reactions contained 10% PEG-8000 and 140 mM salt.
Proteins were stored in 10% glycerol, 50 mM Tris-HCl pH 7.5, 500 mM NaCl, 1 mM DTT. Amicon Ultra Centrifugal filters (30K or 50K MWCO, Millipore) were used to concentrate proteins to desired concentrations. […] Droplet assays were performed in 8-tube PCR strip. […]

MED1-GFP condensates = assay: FRAP of MED1-GFP condensates in mESCs; type: cell-based, mouse; details: ectopic expression in mESCs, untreated
Procedure: ATP depletion: Cells were cultured for 2 hours in glucose-free DMEM (Gibco, 11966025) supplemented with 0.5× B27 supplement and 0.5× N2 supplement followed by incubation with 5 mM 2-deoxy-glucose (Sigma, D6134) and 126 nM Oligomycin (Sigma, 75351) for 2 hours. Cellular ATP levels were measured using a bioluminescence assay (Invitrogen, A22066) following manufacturer's instructions. Cells expressing fluorescently tagged proteins were imaged ever 1 s for 20 s at a 100× objective on the Andor Revolution Spinning Disk Confocal, […] system and Metamorph acquisition software (W.M. Keck Microscopy Facility, MIT). One or two images were pre-bleach and on then approximately 0.5 μm^2 was bleached with the 488 nm laser of the quantifiable laser module (QLM). FRAP was performed on selecting region of interest with 5 pulses of 20 μs each. For FRAP analysis, florescence recovery was measured as fluorescence intensity of photobleached area normalized to the intensity of the unbleached area or the entire nucleus. Fluorescence intensity was measured with FIJI FRAP profiler plugin (code written by Jeff […], adapted from Tony Collins' Macbiophotonics plugins, available here: //worms.zoology.wisc.edu/research/4d/4d.html

MED1-IDR droplets = molecular target: T1, MED1-IDR droplets (Homo sapiens, UniProt Q15648); assay: In vitro droplet assay, TMR-labeled decapeptides with MED1-IDR-GFP; type: biochemical; details: 10 uM each, 125 mM NaCl, 10% PEG-8000
T1 construct: pETEC-MED1-IDR-GFP; Sabari et al., 2018; 948-1574; 6xHis (N); made in house; host or cells: E. coli LOBSTR
Procedure: Recombinant GFP or mCherry fusion proteins were concentrated and desalted to an appropriate protein concentration and 125 mM NaCl using Amicon Ultra centrifugal filters (30K MWCO, Millipore). Recombinant proteins were added to solutions at varying concentrations with indicated final salt and 10% PEG-8000 as crowding agent in Droplet Formation Buffer (50 mM Tris-HCl pH 7.5, 10% glycerol, 1 mM DTT). The protein solution was immediately loaded onto a homemade chamber comprising a glass slide with a coverslip attached by two parallel strips of double-sided tape. Slides were then imaged with an Andor confocal microscope with a 150× objective. Unless indicated, images presented are of droplets settled on the glass coverslip. For experiments with fluorescently labeled polypeptides, the indicated decapeptides were synthesized by the Koch Institute/MIT Biopolymers & Proteomics Core Facility with a TMR fluorescent tag. The protein of interest was added Buffer D with 125 mM NaCl and 10% Peg-8000 with the indicated polypeptide and imaged as described above. For FRAP of in vitro droplets 5 pulses of laser at a 50 us dwell time was applied to the droplet, and recovery was imaged on an Andor microscope every is for the indicated time periods. […] One microliter of this concentrated stock was used in a 10 uL droplet formation reaction to achieve a final concentration of 10 uM.

MED1-IDR-GFP = molecular target: T2, MED1-IDR-GFP (human, UniProt Q15648 948-1574); assay: in vitro droplet assay with TMR-labeled decapeptide, 125 mM NaCl, 10% PEG-8000
T2 construct: Recombinant from E. coli
Text: All 17 acidic residues in the N-AD and 6 acidic residues in the C-AD were mutated to alanine to generate an OCT4-acidic mutant.

MED1-IDR-mCherry = molecular target: T3, MED1-IDR-mCherry (human, UniProt Q15648 948-1574); assay: in vitro droplet assay, 10 uM each, 125 mM NaCl, 10% PEG-8000
T3 construct: Recombinant from E. coli; Lacks the LXXLL motifs; also called mCherry-MED1-IDR

HCT116 cells = assay: FRAP of endogenously tagged mEGFP-β-catenin in HCT116 cells; type: cell-based; details: nuclear puncta, constitutive WNT-activated HCT116 cells
Procedure: FRAP was performed on LSM880 Airyscan microscope with 488 nm laser. Bleaching was performed over a rbleach≈1 um using 100% laser power and images were collected every two seconds. Fluorescence intensity was measured using FIJI. Background intensity was subtracted and values are reported relative to pre-bleaching time points.
Custom MATLAB™ scripts were written to process the intensity data, accounting for background photobleaching and normalization to pre-bleach intensity. Post bleach FRAP recovery data was averaged over 9 replicates for each cell-line and condition.

## GCN4: purified recombinant yeast GCN4-GFP
[1]; 125 mM NaCl, 10% PEG-8000
  concentration at which micron-sized droplets form alone: 40 µM

## MED1-GFP: full-length human MED1 fused to mEGFP, ectopically expressed in mESCs
MED1-GFP condensates
  apparent diffusion coefficient: 0.36±0.13 μm2/s

## Poly-E: TMR labeled glutamic acid decapeptide
MED1-IDR droplets
  incorporation of TMR labeled decapeptide into MED1-IDR droplets: incorporated into MED1-IDR droplets
MED1-IDR droplets; listed as glutamic acid peptides
  incorporation of TMR labeled decapeptide into MED1-IDR droplets: concentrated within

## Poly-P: TMR labeled proline decapeptide (PPPPPPPPPP; also: TMR labeled, site not given here)
MED1-IDR droplets
  incorporation of TMR labeled decapeptide into MED1-IDR droplets: not incorporated into MED1-IDR droplets

B1: MED1-IDR: recombinant GFP fusion of the MED1 intrinsically disordered region (948-1574) (protein)
chain: EHHSGSQGPLLTTGDLGKEKTQKRVKEGNGTSNSTLSGPGLDSKPGKRSRTPSNDGKSKDKPPKRKKADTEGKSPSHSSSNRPFTPPTSTGGSKSPGSAGRSQTPPGVATPPIPKITIQIPKGTVMVGKPSSHSQYTSSGSVSSSGSKSHHSHSSSSSSSASTSGKMKSSKSEGSSSSKLSSSMYSSQGSSGSSQSKNSSQSGGKPGSSPITKHGLSSGSSSTKMKPQGKPSSLMNPSLSKPNISPSHSRPPGGSDKLASPMKPVPGTPPSSKAKSPISSGSGGSHMSGTSSSSGMKSSSGLGSSGSLSQKTPPSSNSCTASSSSFSSSGSSMSSSQNQHGSSKGKSPSRNKKPSLTAVIDKLKHGVVTSGPGGEDPLDGQMGVSTNSSSHPMSSKHNMSGGEFQGKREKSDKDKSKVSTSGSSVDSSKKTSESKNVGSTGVAKIIISKHDGGSPSIKAKVTLQKPGESSGEGLRPQMASSKNYGSPLISGSTPKHERGSPSHSKSPAYTPQNLDSESESGSSIAEKSYQNSPSSDDGIRPLPEYSTEKHKKHKKEKKKVKDKDRDRDRDKDRDKKKSHSIKPESWSKSPISSDQSLSMTSNTILSADRPSRLSPDFMIGEEDDDLM
modifications: left off: large carriers; small tags and cut ends
[1]; droplet formation buffer with 10% PEG-8000, range tested 0.6 to 20 μM
  lowest concentration tested, at which droplets were observed: 0.6 µM

B2: TMR-Poly-P Peptide (peptide)
peptide: PPPPPPPPPP
modifications: also: TMR fluorescent tag, site not given here
notes: also called proline decapeptide
MED1-IDR-GFP
  binding result: no binding (tested: 10 uM)

B3: ER-GFP (receptor, not shown: large carriers; small tags and cut ends)
chain: MTMTLHTKASGMALLHQIQGNELEPLNRPQLKIPLERPLGEVYLDSSKPAVYNYPEGAAYEFNAAAAANAQVYGQTGLPYGPGSEAAAFGSNGLGGFPPLNSVSPSPLMLLHPPPQLSPFLQPHGQQVPYYLENEPSGYTVREAGPPAFYRPNSDNRRQGGRERLASTNDKGSMAMESAKETRYCAVCNDYASGYHYGVWSCEGCKAFFKRSIQGHNDYMCPATNQCTIDKNRRKSCQACRLRKCYEVGMMKGGIRKDRRGGRMLKHKRQRDDGEGRGEVGSAGDMRAANLWPSPLMIKRSKKNSLALSLTADQMVSALLDAEPPILYSEYDPTRPFSEASMMGLLTNLADRELVHMINWAKRVPGFVDLTLHDQVHLLECAWLEILMIGLVWRSMEHPGKLLFAPNLLLDRNQGKCVEGMVEIFDMLLATSSRFRMMNLQGEEFVCLKSIILLNSGVYTFLSSTLKSLEEKDHIHRVLDKITDTLIHLMAKAGLTLQQQHQRLAQLLLILSHIRHMSNKGMEHLYSMKCKNVVPLYDLLLEMLDAHRLHAPTSRGGASVEETDQSHLATAGSTSSHSLQKYYITGEAEGFPATV
notes: Tested without ligand, with estrogen (beta-estradiol) and with tamoxifen (4-hydroxytamoxifen); also called estrogen receptor; GFP labeled ER
MED1-IDR-mCherry
  binding result: binds

B4: β-catenin: mEGFP-tagged β-catenin at the endogenous locus in HCT116 cells (protein)
chain: ATQADLMELDMAMEPDRKAAVSHWQQQSYLDSGIHSGATTTAPSLSGKGNPEEEDVDTSQVLYEWEQGFSQSFTQEQVADIDGQYAMTRAQRVRAAMFPETLDEGMQIPSTQFDAAHPTNVQRLAEPSQMLKHAVVNLINYQDDAELATRAIPELTKLLNDEDQVVVNKAAVMVHQLSKKEASRHAIMRSPQMVSAIVRTMQNTNDVETARCTAGTLHNLSHHREGLLAIFKSGGIPALVKMLGSPVDSVLFYAITTLHNLLLHQEGAKMAVRLAGGLQKMVALLNKTNVKFLAITTDCLQILAYGNQESKLIILASGGPQALVNIMRTYTYEKLLWTTSRVLKVLSVCSSNKPAIVEAGGMQALGLHLTDPSQRLVQNCLWTLRNLSDAATKQEGMEGLLGTLVQLLGSDDINVVTCAAGILSNLTCNNYKNKMMVCQVGGIEALVRTVLRAGDREDITEPAICALRHLTSRHQEAEMAQNAVRLHYGLPVVVKLLHPPSHWPLIKATVGLIRNLALCPANHAPLREQGAIPRLVQLLVRAHQDTQRRTSMGGTQQQFVEGVRMEEIVEGCTGALHILARDVHNRIVIRGLNTIPLFVQLLYSPIENIQRVAAGVLCELAQDKEAAEAIEAEGATAPLTELLHSRNEGVATYAAAVLFRMSEDKPQDYKKRLSVELTSSLFRTEPMAWNETADLGLDIGAQGEPLGYRQDDPSYRSFHSGGYGQDALGMDPMMEHEMGGHHPGADYPVDGLPDLGHAQDLMDGLPPGDSNQLAWFDTDL
modifications: left off: large carriers; small tags and cut ends
notes: mEGFP-tagged β-catenin at the endogenous locus in HCT116 cells
HCT116 cells
  approximate apparent diffusion coefficient: ~0.004±0.003 μm^2/s
